Drawing on the RNAGym collection of RNA variant scans (doi:10.1093/nar/gkz1192), this text covers self-cleavage for 34 variants.

B1: CPEB3 Ribozyme (parent)
chain: UAACAGGGGGCCACAGCAGAAGCGUUCACGUCGCAGCCCCUGUCAGAUUCUGGUGAAUCUGCGAAUUCUGCUGUAUAUCUC

Variants of B1 are the subject of this data set. The data set can be described thus: self-cleavage, relative activity (ratio to wild type); higher = more cleavage; in vitro, sequencing. An outline of the steps:
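For each CPEB3 ribozyme variant, relative activity is its cleaved/total read fraction divided by the unmutated ribozyme's. Barcoded error-prone PCR libraries were transcribed by T7 RNA polymerase (5 hours, 37°C) and held in DNase I for 15 min before an EDTA stop, with cleavage occurring throughout. Template-switching reverse transcription and Illumina sequencing were used to read the RNAs. A 5-read minimum applied, and results are the mean of three batches.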
In the case of UAACAGGGGGCCACAGCAGAAGCGUUCACGUCGCAGCCCCUGUCGGAUUCUGGUGAAUCUGCGAAUUCUGCUGUAUGUCUC [A45G A77G], the self-cleavage is 0.87.

As for UAACAGGGGGCCACAGAAGAAGCGUUCACGUCGCAGCCCCUGUCAGAUUCUGGUGAAUCUGCGAAUUCUGCUGUAUAUCUC [C17A], the self-cleavage amounted to 0.32.

For UAACAGGGGGCCACAGCAGAAGAGUUCACGCCGCAGCCCCUGUCAGAUUCUGGUGAAUCUGCGAAUUCUGCUGUAUAUCUC [C23A U31C], the self-cleavage was found to be 0.23.

In the case of UAACAGGGGGCCACAGCAGAAGCGUUCACGUCGCAGCCCCAGUCAGAUUCUGGUGAAUCUGCGAAUUCUGCUGUAUGUCUC [U41A A77G], the self-cleavage was 0.31.

On to UAACAGGGAGCCACAGCAGAAGCGUUCACGUCGCAGCCCCUGUCAGAUUCUGGUGAAUCUGCGAACUCUGCUGUAUAUCUC [G9A U66C], for which the self-cleavage is 0.24.

UAACAGGGGGCCACAGCAGAAGCGUUCACGUCGCAGCCCCUGUCAGGUUCUGGUGAAUCUGCGAAUUCGGCUGUAUAUCUC [A47G U69G]: the self-cleavage worked out at 0.68.

As for UAACAGGGGGCCACAGCAGCAGCGUUCACGUCGCAGCCCCUGUCAGUUUCUGGUGAAUCUGCGAAUUCUGCUGUAUAUCUC [A20C A47U], the self-cleavage turned out to be 0.47.

Take UAACAGGGGGCCACAGGAGAAGCGUUCACGUCGCAGCCCCUGUCAGAUUCUGGUGAAUCUGCGAAUUCUGCAGUAUAUCUC [C17G U72A]: the self-cleavage was determined as 0.21.

With UAACAGGGGGCCACAGCAGAAGCGUUCCCGUCGCAGCCCCUGUCAGAUUCUGGUGAAUCUGCGAAUUCUGCUGUAUAUCAC [A28C U80A], the self-cleavage is 0.53.

UAACAGGGGGCCACAGCAGAAGCGUUCACGUCGCAGCCCCUGUCAGGUUCUGGUGAAUCUGCGAAUUCUGCUGUGUAUCUC [A47G A75G]: the self-cleavage came to 0.88.

For UAACAGGGGGCCACAGCAGAUGGGUUCACGUCGCAGCCCCUGUCAGAUUCUGGUGAAUCUGCGAAUUCUGCUGUAUAUCUC [A21U C23G], the self-cleavage was 0.07.

In the case of UAACAGGGGGCCACAGCAGAAGCGUUCACGUCGCAGCCCCUGUCAGAUCCUGGUGAAUCUGCGCAUUCUGCUGUAUAUCUC [U49C A64C], the self-cleavage is 0.26.

Consider UAACAGGGGGCCACAGCAGAAGCGUUCACGUCGCAGCCCCCGUAAGAUUCUGGUGAAUCUGCGAAUUCUGCUGUAUAUCUC [U41C C44A], for which the self-cleavage came to 0.39.

Take UAACAGGGGGCCACAGCAGAAGCAUUCACGUCGCAGCCCCUGUCAGAUUCUGGUGAAUCUGCGAAUUCUGCUGUAUACCUC [G24A U78C]: the self-cleavage is 0.33.

Consider UAACAGGGGGCCACAGCAGAAGCGUUCACGUCGCAGCCCCUGUCAGUUUCUGGUGAAUCUGCGAAUUCUUCUGUAUAUCUC [A47U G70U], for which the self-cleavage amounted to 0.14.

On to UAACAGAGGGCCACAGCAGAAGCGUUCACGUCGCUGCCCCUGUCAGAUUCUGGUGAAUCUGCGAAUUCUGCUGUAUAUCUC [G7A A35U], for which the self-cleavage was determined as 0.19.

As for UAACAGGGGGCCACAGCAGAAGCGUUCACGUCGCAGCCCCUGUCAGAGACUGGUGAAUCUGCGAAUUCUGCUGUAUAUCUC [U48G U49A], the self-cleavage was found to be 0.52.

Regarding UAACAGGGGGCCACAGCAGAAGCGUUCACGUCGCAGCCCCUGUAAGAUUCUGGUGAAUCUGCGAAUUCUGCUGUAUAUCUC [C44A], the self-cleavage was found to be 0.43.

As to UAACAGGGGGCCCCAGCAGAAGCGUUCACGUCGCAGCCCCUGUCAGAUUCUGGUGAAUCUGCGAAUUCUGCUGUAUAUUUC [A13C C79U], the self-cleavage turned out to be 1.11.

On to UAACAGGGGGUCACAGCAGAAGCGUUCACGUCGCAGCCCCUGUCAGAUUCUGGCGAAUCUGCGAAUUCUGCUGUAUAUCUC [C11U U54C], for which the self-cleavage came out at 0.43.

Take UAACAGGGGGCCACAGCAGAAGCGUUCACGUCGCAGCCCCUGUCAGAUUCUGGUGAAUCCGCGAAUUCUGCAGUAUAUCUC [U60C U72A]: the self-cleavage was determined as 0.37.

As to UAACAGGGGGCCACAGCAGAAGCGUACACGUCGCAGCCCCUGUCAGAUUCAGGUGAAUCUGCGAAUUCUGCUGUAUAUCUC [U26A U51A], the self-cleavage is 0.81.

For the variant UAACAGGGGGCCACAGCAGAAGCGUUCACGUCGCAGCCCCAGUCAGAUUCUGGUGAAUCUGCGAAUUCUGCUGUAGAUCUC [U41A U76G], the self-cleavage was found to be 0.22.

In the case of UAACAGGGGGCCACAGCAUAAGCGUUCACGUCGCAGUCCCUGUCAGAUUCUGGUGAAUCUGCGAAUUCUGCUGUAUAUCUC [G19U C37U], the self-cleavage worked out at 0.38.

Take UAACAGGGGGCCACAGAAGAAGCGCUCACGUCGCAGCCCCUGUCAGAUUCUGGUGAAUCUGCGAAUUCUGCUGUAUAUCUC [C17A U25C]: the self-cleavage was 0.2.

As to UAACAGGGGGCCACAGCAGAAGCGUUCACGUCGCAGCCCCUGUCAGAUUCUGGUGAAUCUGCGACUCCUGCUGUAUAUCUC [A65C U67C], the self-cleavage is 0.23.

On to UGACAGGGGGCCACAGCAGUAGCGUUCACGUCGCAGCCCCUGUCAGAUUCUGGUGAAUCUGCGAAUUCUGCUGUAUAUCUC [A2G A20U], for which the self-cleavage stood at 0.39.

On to UAACAGGGGGCCACAGCAGAAGCGUUCACGUCGCAGCCCCUGUCAGAUUAUGGUGAAUCUGCGAAUUCUGCUGUAUAGCUC [C50A U78G], for which the self-cleavage was 1.06.

For the variant UAACAGGGGGCCGCAGCAGAAGCGUUCACGUCGCAGCCCCUGUCAGAUUCUGGUCAAUCUGCGAAUUCUGCUGUAUAUCUC [A13G G55C], the self-cleavage was found to be 0.23.

As to UUACAGGGGGCCACAGCAGAAGCUUUCACGUCGCAGCCCCUGUCAGAUUCUGGUGAAUCUGCGAAUUCUGCUGUAUAUCUC [A2U G24U], the self-cleavage was determined as 0.34.

As for UAACAGGGGGCCACAGCAGAAGCGUUCACGUCGCAGCCCCUGUCAUAUUCUGGUGAAUCUGCGUAUUCUGCUGUAUAUCUC [G46U A64U], the self-cleavage was determined as 0.18.

For UAACAGGGGGCCACAGCAGAAGCGUUCACGUCGCAGCCCCCGUCAGAUUCUGGUGAAUCUGCGAAUUCUGCUGUAUUUCUC [U41C A77U], the self-cleavage stood at 1.17.

As to UAACAGGGGGCCACAGCAGAAACGUUCACGUCGCAGCCCCUGUCAGAUUCUGGUGAAUCUGCGAAUUCGGCUGUAUAUCUC [G22A U69G], the self-cleavage amounted to 0.06.

For the variant UAACAGGGGGCCACAGCAGAAGCGGUCACGUCGCAGCCCCUGUCAGAUUCUGGUGAAUCUGCGAAUUCUGCUGUAUUUCUC [U25G A77U], the self-cleavage turned out to be 0.25.
